{
  "source": "the DeepSol protein solubility set",
  "data": [
    {"test": "soluble on expression in E. coli; label from the status in PepcDB or PDB records", "values": [
      {"sequence": "MGKTSQRKQCDCENPSKPCLSTSIPLRMSSYTFKRPVTKITSHLGNEVRYYQWEETFKKPEQACWQKRLQGLQAYSSAGELLSTSDLAKTLKDLTSTDTVASASDTQATSIDITSVPTLESSSHLANMIPEAGPQILCKEFLVTEQDIINQERKVKIARERLAVALIAHKLASEMETVRGSRKANL", "soluble on expression in E. coli": "not soluble"},
      {"sequence": "MTSNFREYLFAPDHPRLAELRELDAYAYRTVARRPGTFTGDLVAGWTPLYKNEFRGVTEDGTLREDVHCLEPARAGEAAPVPEMVAAAADLLAGLDDESRERIRYRVDAPEWQTWANPEFMQFDTGIRLEFQSEDVRRKALRLMASSLSPQGYELARNMMLINGFLGEVVGLPGILNEFSYNMAIYGTPHETRPWGWQVFGHHLAVNCFVVDGRMVISPLFLGAEPNEIDEGEHAGVTSFGTRIELGLALMAELTPEQRCAATVYEQMVDPAMPPGRVHPGDERHLAGAFQDNRQIPFEGVRVADLSCRAQELVLEIVEQFVALLPDGPRAARMREVRKMLSQTWFSWIGGHRPGDVFYYRVQSPVIIAELDHHCGVFLDYDTPKPFHIHTVVRTPHGNDYGRAYLRQWEQGHRLEHHHHHH", "soluble on expression in E. coli": "soluble"},
      {"sequence": "MLRNLKKTLVLDSSVFIQGIDIEGYTTPSVVEEIKDRESKIFLESLISAGKVKIAEPSKESIDRIIQVAKETGEVNELSKADIEVLALAYELKGEIFSDDYNVQNIASLLGLRFRTLKRGIKKVIKWRYVCIGCGRKFSTLPPGGVCPDCGSKVKLIPRKRLEHHHHHH", "soluble on expression in E. coli": "not soluble"},
      {"sequence": "MRFSREALLELEASRLAPYAQKARDTRGRAHPEPESLYRTPYQKDRDRILHTTAFRRLEYKTQVLPGWAGDYYRTRLTHTLEVAQVSRSIARALGLNEDLTEAIALSHDLGHPPFGHTGEHVLNALMQDHGGFEHNAQALRILTHLEVRYPGFRGLNLTYEVLEGIATHEAAYSPGFKPLYEGQGTLEAQVVDLSDAIAYAAHDLDDGLRAGLLHPEELKEVELLQALALEEGLDLLRLPELDRRVLVRQLLGYFITAAIEATHRRVEEAGVQSAEAVRRHPSRLAALGEEAEKALKALKAFLMERFYRHPEVLRERRKAEAVLEGLFAAYTRYPELLPREVQAKIPEEGLERAVCDYIAGMTDRFALEAYRRLSP", "soluble on expression in E. coli": "soluble"},
      {"sequence": "MAHHHHHHMPKYYCEYCDIYLTHSSPVGRRQHIHGRKHISAKIEYFQNLLREEGITPQNFLGFLNNRNINNPLGNPMMNYMNPNMYMKYNPMKSYHSYSMRSSHPYRLNIHNNKYSRAGYVPPSHHKYSVNPMHNNYHQAHNNYSYPNSINPSNQINYSNNYGSNNFNNSNEFNKNMNEKDNINNNDIHDNKVKTDENDPINNDNLNNTRNFSYEENHYSTDHKKPSFLNPENSKEHIESDIS", "soluble on expression in E. coli": "not soluble"},
      {"sequence": "MAHHHHHHMLRRHFQLFLRRTPLWLADDGSSLFERYTEIENSNERRMSALKACGMFDDEWIATEKVHGANFGIYSIEGEKTIRYAKRSGIMHPTEHFFGYHMLVPQLQQYITVTREMLCDKLQKKLHTVLINGELFGGKYDHPSLQKTRKTVMVAGKPRTISAVQTDSFPQYSPDLHFYAFDIKYKETNEAEYVTLTFDDATELFKRVPGLLYARAIIRGPMSKVAAFDVEHFVTTIPPLVGMGNYPLKGNWAEGLVVKHAKRGTPGFDPKGLTILKFKCTAFQEISTDRRQGPRVDEMESVRRDSISRSGIQLPALESIIHDPVQLEASKFLLDHICENRLNAVLSKIGTDPFEKQEMTPDDLATLLAKDALKDFLKEAEPAIVNTPILTRRDMARYVLFESRQLVCSRWKAILQRQTADVVE", "soluble on expression in E. coli": "not soluble"},
      {"sequence": "GPGSMTGRTSSVSENHLGFSAEGGVVNYALLQPHRTEAERRPLAPSEVAQHLMASAAAASGATHSATGGSGAHTMRQCTPKELATRSSKVVTLYDLAGHERYLKTTVLGMTRNMPDYACIVISANNGIQRMTKEHLALCLALKLPFFIVVTRIDSTPPNIHDETLSNIHKLLKIPTVRKLSYPVRRHDEVTLAAKNCAMIALPRSSKSATLPVLASLTYCNSLTYSRLGRTGGRRATCQRR", "soluble on expression in E. coli": "not soluble"},
      {"sequence": "MSKSALDPVEFLKGALEIPSPSGKERAVAEYLAEGMQKLGLKGFVDEADNARGQVGEGPVQVVLLGHIDTVPGQIPVRLEGGRLFGRGAVDAKGPFVAMIFAAAGLSEEARRRLTVHLVGATEEEAPSSKGARFVAPRLKPHYAVIGEPSGWEGITLGYKGRLLVKARREKDHFHSAHHEPNAAEELISYFVAIKAWAEAMNVGQRPFDQVQYTLRDFRVHPAELRQVAEMFFDLRLPPRLPPEEAIRHLTAYAPPTIELEFFGREVPYQGPKDTPLTRAFRQAIRKAGGRPVFKLKTGTSDMNVLAPHWPVPMVAYGPGDSTLDHTPYEHVEVAEFLKGIEVLRGALEALAQTHAGEKEG", "soluble on expression in E. coli": "soluble"},
      {"sequence": "GVRFAFGPTVDFHFGENYAFSTGAWYLSSRAGLSQSVPGLTYKEIVSLQSVQIPVTFKAYTNEIATNMKLYFQLGGLATFNFYEKFKESTPSNSSYDDKYNVFDVSLYVGAGVSYKIGESNALFGGFYYSRGLMNMLDGSTIPGTSDRYKKAAKYNNDLVGLEVGITF", "soluble on expression in E. coli": "not soluble"},
      {"sequence": "MSLDTPTHLTLMVSGTAKMIYLPATLAQRLGYFRDEGLDVELLSQPAGVDAESELLTGYAQGVVGFYDHTIDLQTKGKEVRAIVVFSHVPGEAEVVSTRLPATVQSLHDLRGRTLGVTGLGSSTSFLTRHLMAQQGLGPGEYTMLPVGAEHSFVSALRSGRIDAGMTTDPTATRLIRNKEARMLLDLRTIESTRAALGGPYPAACLYVQTEWLEAHPELATKLARAFVRTLRYLRSHRAEDIAAHMPPEFRRDRPDVYMQALIAALPTFSDDGRMPADGPATVLRVLSTSNPNARDKHIDLSRTYTNRFVDQAKEGHHHHHH", "soluble on expression in E. coli": "soluble"},
      {"sequence": "GIVMTQTPASQSASLGESVTITCLASQTIGTWLAWYQQKPGKSPQLLIYAATSLADGVPSRFSGSGSGTKFSFKISSLQAEDFVSYYCQQLSSTPYTFGGGTKLEIKRADAAPTVSIFPPSSEQLTSGGASVVCFLNNFYPKDINVKWKIDGKERQNGVLNSWTDQDSKDSTYSMSSTLTLTKDEYERHNSYTCEATHKTSTSPIVKSFNRNE", "soluble on expression in E. coli": "soluble"},
      {"sequence": "MLAEIKGLNEECGVFGIWGHENAAQVSYYGLHSLQHRGQEGAGIVVNNGEKIVGHKGLGLISEVFSRGELEGLNGKSAIGHVRYATAGGSEVANVQPLLFRFSDHSMALAHNGNLINAKMLRRELEAEGSIFQTSSDTEVLLHLIKRSTKDSLIESVKEALNKVKGAFAYLLLTGNEMIVALDPNGFRPLSIGKMGDAYVVASETCAFDVVGATYIRDVEPGELLIINDEGIHVDRFTNEVDHAICSMEYIYFARPDSNIAGINVHAARKNMGKRLAAEAPIEADVVTGVPDSSISAAIGYAEATGIPYELGLIKNRYVGRTFIQPSQELREQGVKMKLSAVRGVVEGKRVVMIDDSIVRGTTSKRIVRMLREAGATEVHVRIASPPLKYPCFYGIDIQTRKELIAANHTVEEIREMIGADSLTFLSEDGLVDAIGRPYEGKYGGLCMAYFNGDYPTALYDYEQELLESMK", "soluble on expression in E. coli": "not soluble"},
      {"sequence": "MGSDKIHHHHHHMRIEITPISESALVCRLNAPSELGKQQKLWAFAAALGQHDRIEEVVVGMNNLTVFTRFDTDLATLADELQYVWEHTAVTDHQGKLVEIPVCYGGEYGPDLAEVAAFHQTVISEIVRRHTAQTYTVFMMGFQPGFPYLGGLPEALHTPRRAVPRTSVPAGSVGIGGSQTGVYPFASPGGWQIIGRTELPLFRADLNPPTLLAAGDQVRFVAERIEP", "soluble on expression in E. coli": "not soluble"},
      {"sequence": "MGSDKIHHHHHHMAESSFVYNGVEITWLKHAGFRIKGSRVVYIDPYDIPEELEKADVILVTHDHFDHMDVKSIRKLSKDDTVVVHPSGCIIEGFESCEVGVGTEAEVKGVKIKAVPAYNVDKPFHKENCVGYIVGIDGVKIYHAGDTDRIPEMKEIEVDIALLPVGGTYTMNLQEAIEAAKDIRAKYYIPMHFGAIPQTSADPEEFKRKVKGAVILKPLF", "soluble on expression in E. coli": "not soluble"},
      {"sequence": "MKMKYEWRKQEKTTYATKKQPQLLTIPAQTFMSIHGTGNPNGPEFQTHLQTLYPAAYGLKHAYKQYAQTQACEFDDYVVFPLEGVWSLTIKGQQLDHLDKDEFSYDIMIRVPDFVPNELIAPALAAVKAKKQLPTEQINVQQFDAMQVAQILHLGAYDDEPASFAKIDELVANQGMHRTSKIHREIYLSDARRVAPDKLKTILRYRVASN", "soluble on expression in E. coli": "not soluble"},
      {"sequence": "MNDLTLSPIAIIHTPYKEKFSVPRQPNLVEDGVGIVELLPPYNSPEAVRGLEQFSHLWLIFQMDQIQQGKWQPTVRPPRLGGNQRVGVFASRATHRPNPLGMSKVELRQVECINGNIFLHLGAVDLVDGTPIFDIKPYIAYADSEPNAQSSFAQEKLPVKMTVEFTEQAKSAVKKREEKRPHLSRFIRQVLEQDPRPAYQQGKPSDRIYGMSLYEFNVKWRIKAGTVNCVEVIEIEKDKLEHHHHHH", "soluble on expression in E. coli": "soluble"},
      {"sequence": "MPQVQSWFPVQKQPTLAVTFTPLPQLSHAHLPLPPSHLVTKTDAMFQHQLLPTQLQPFPPNHTPLLLLLTVTTMAVTPRLSLLNVLKKLQQPPFLQNHTLLLPLLTVTTTAVTPRLSLPRLPNKHHWPLAQSPSLLLQLLILLLPAPSLVLSFNPKVWLLV", "soluble on expression in E. coli": "not soluble"},
      {"sequence": "KAIYNRNLGYSDGAGAVLALKKKGHQNACKIAGCELWLKIIERYSREKSFYLVGGKPEVIEETIQKLRKDFPRINIVGYRDGYLKGNDDEVLIEDIAAKKPDVVFVAMGSPKQELLMERMQRVHPNAIYQGLGGSFDVYTGRVERAPEWWIRHNLEFAYRLIKQPSRIKRQIHLVRFLFRVLTNRI", "soluble on expression in E. coli": "not soluble"},
      {"sequence": "MESSKKMDSPGALQTNPPLKLHTDRSAGTPVFVPEQGGYKEKFVKTVEDKYKCEKCHLVLCSPKQTECGHRFCESCMAALLSSSSPKCTACQESIVKDKVFKDNCCKREILALQIYCRNESRGCAEQLTLGHLLVHLKNDCHFEELPCVRPDCKEKVLRKDLRDHVEKACKYREATCSHCKSQVPMIALQVSLLQNESVEKNKSIQSLHNQICSFEIEIERQKEMLRNNESKILHLQRVIDSQAEKLKELDKEIRPFRQNWEEADSMKSSVESLQNRVTELESVDKSAGQVARNTGLLESQLSRHDQMLSVHDIRLADMDLRFQVLETASYNGVLIWKIRDYNRRKQEAVMGKTLSLYSQPFYTGYFGYKMCARVYLNGDGMGKGTHLSLFFVIMRGEYDALLPWPFKQKVTLMLMDQGSSRRHLGDAFKPDPNSSSFKKPTGEMNIASGCPVFVAQTVLENGTYIKDDTIFIKVIVDTSDLPDP", "soluble on expression in E. coli": "soluble"},
      {"sequence": "GMKLYKLLILDIDGTLRDEVYGIPESAKHAIRLCQKNHCSVVICTGRSMGTIQDDVLSLGVDGYIAGGGNYIQYHGELLYNQSFNQRLIKEVVCLLKKREVAFSIESQEKVFMNQKAKEIFETMNQLKGTNSCINKQHIQEKITYENNIEEYKSQDIHKICLWSNEKVFDEVKDILQDKMELAQRDISSQYYEIIQKDFHKGKAIKRLQERLGVTQKETICFGDGQNDIVMFQASDVTIAMKNSHQQLKDIATSICEDIFDNGIYKELKRRNII", "soluble on expression in E. coli": "soluble"}
    ]}
  ]
}
